Tests used:
[1] = target: RNA polymerase II in isolated early elongation complexes (human (endogenous in HeLa)) (UniProt P24928)
[2] = target: RNA polymerase II in isolated early elongation complexes (human (endogenous in HeLa)) (UniProt P24928); remark: listed apart in the source

Row | block of TFIIF (0.1 pmol)-dependent runoff by 1 pmol ΔLPDKG mutant, in vitro transcription on isolated EECs, 7-min chase (blocks TFIIF acting on Pol II) [1] [%] | termination region as percent of total counts with TTF2 (0.04 pmol) and 1 pmol ΔLPDKG mutant (72% with TTF2 alone), in vitro transcription on isolated EECs (blocks TTF2 acting on Pol II) (% of the total counts) [1] | amount of Gdown1 CTD titrated onto EECs that completely blocks elongation stimulation by 0.1 pmol TFIIF, in vitro transcription, 7-min chase [2] [pmol] | Substance
1 | 90 | 50 | – | Gdown1 ΔLPDKG deletion mutant (from UniProt P0CAP2-1 1-368) (natural protein)
2 | – | – | 20 | Gdown1 CTD(197–368) (from UniProt P0CAP2-1 197-368) (domain or fragment)
